Consider one substance from paper PMC8050864.

Test [1] has as its target FL PFV intasome (tetramer of full-length prototype foamy virus integrase bound to two viral DNA ends) (prototype foamy virus). The experiment in a line: pull-down.
The target of test [2] is PFV IN(ΔCTD) intasome: full-length PFV IN(K120E) at the inner protomers, PFV IN(D273K, ΔCTD) at the outer protomers (prototype foamy virus). The experiment in a line: pull-down.

For “601 nucleosome treated with trypsin to remove the histone tails (from UniProt P04908 1-130; O60814 1-126; P68431 1-136; P62805 1-103) (complex)”, the percent of the lane's Coomassie signal in the TL H4 band on the beads in test [1] came to 11.2%; in test [2], 2.5%.
